Values quoted from earlier work as cited in article PMC10454195.

Target: GLP-1 receptor (Homo sapiens) (UniProt P43220)
Sequence of UniProt P43220 (P43220 24-463): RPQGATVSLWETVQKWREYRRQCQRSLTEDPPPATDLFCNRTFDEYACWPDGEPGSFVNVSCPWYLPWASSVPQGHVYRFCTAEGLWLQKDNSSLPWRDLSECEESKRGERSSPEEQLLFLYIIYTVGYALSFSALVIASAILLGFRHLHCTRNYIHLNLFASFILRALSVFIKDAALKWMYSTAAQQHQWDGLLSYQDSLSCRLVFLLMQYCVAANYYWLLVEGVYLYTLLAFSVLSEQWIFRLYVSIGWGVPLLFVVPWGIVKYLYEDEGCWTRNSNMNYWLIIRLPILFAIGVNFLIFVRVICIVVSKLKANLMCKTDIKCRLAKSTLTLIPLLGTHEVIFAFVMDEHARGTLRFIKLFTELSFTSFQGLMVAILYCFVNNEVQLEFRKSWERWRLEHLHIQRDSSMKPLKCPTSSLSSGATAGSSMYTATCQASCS

Sequence of GLP-1 (P01275 98-127): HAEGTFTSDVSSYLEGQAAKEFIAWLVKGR

Kd: 5 nM
Substance: GLP-1 (from UniProt P01275)
